Where two headings read alike, the source gives them in different places.
Tests used:
rat = conditions: cited from earlier work
[1] = Total Hb over time of stroma free hemoglobin with/without solvent-detergent; type: physicochemical
Procedure: (§1) The solvent-detergent treatment was performed at a concentration of 1% Tween 80 […] and 0.3% Tri-N-Butyl Phosphate […]. […] All testing was performed at neutral pH in phosphate buffered saline.
(§2) After treatment, the mixture was centrifuged at 8,000 rpm (4,600 g) for 6 minutes at room temperature.

[2] = Percentage Met-Hb over time of stroma free hemoglobin with/without solvent-detergent; type: physicochemical
Procedure: as §1, §2

[3] = in vivo; cited from earlier work

Molecule: CCCO [1-Propanol]
- LD50 (oral-rat) (rat; in vivo, po): 1900 mg/kg

Molecule: CCC(C)=O [2-Butanone]
- LD50 (oral-rat) (rat; oral): 2700 mg/kg

Molecule: CC(C)O [2-Propanol]
- LD50 (oral-rat) (rat; in vivo, po): 5000 mg/kg

Molecule: CC#N [Acetonitrile]
- LD50 (oral-rat) (rat; oral): 3800 mg/kg

Molecule: COCCOC [Dimethoxy- ethane (glyme), Dimethoxy- ethane]
- LD50 (oral-rat) (rat; oral): 10000 mg/kg

Molecule: CCOC(C)=O [Ethyl acetate]
- LD50 (oral-rat) (rat; in vivo, po): 11000 mg/kg

Molecule: CO [Methanol]
- LD50 (oral-rat) (rat; oral): 5600 mg/kg

Molecule: SFH: stroma free hemoglobin prepared as in Example 1, 8.6-9.0 g % in PBS
- Total Hb ([1]; 2-6° C., 0 hrs): 8.6 g %
- Total Hb ([1]; 2-6° C., 1 hrs): 8.5 g %
- Total Hb ([1]; 2-6° C., 2 hrs): 8.55 g %
- Total Hb ([1]; 2-6° C., 3 hrs): 8.65 g %
- Total Hb ([1]; 2-6° C., 4 hrs): 8.65 g %
- Total Hb ([1]; 2-6° C., 5 hrs): 8.55 g %
- Total Hb ([1]; 21-23° C., 0 hrs): 8.5 g %
- Total Hb ([1]; 21-23° C., 1 hrs): 8.55 g %
- Total Hb ([1]; 21-23° C., 2 hrs): 8.55 g %
- Total Hb ([1]; 21-23° C., 3 hrs): 8.65 g %
- Total Hb ([1]; 21-23° C., 4 hrs): 8.6 g %
- Total Hb ([1]; 21-23° C., 5 hrs): 8.55 g %
- Percentage Met-Hb ([2]; 2-6° C., 0 hrs): 2.15%
- Percentage Met-Hb ([2]; 2-6° C., 1 hrs): 2.2%
- Percentage Met-Hb ([2]; 2-6° C., 2 hrs): 2.25%
- Percentage Met-Hb ([2]; 2-6° C., 3 hrs): 2.15%
- Percentage Met-Hb ([2]; 2-6° C., 4 hrs): 2.1%
- Percentage Met-Hb ([2]; 2-6° C., 5 hrs): 2.25%
- Percentage Met-Hb ([2]; 21-23° C., 0 hrs): 2.2%
- Percentage Met-Hb ([2]; 21-23° C., 1 hrs): 2.4%
- Percentage Met-Hb ([2]; 21-23° C., 2 hrs): 2.45%
- Percentage Met-Hb ([2]; 21-23° C., 3 hrs): 2.45%
- Percentage Met-Hb ([2]; 21-23° C., 4 hrs): 2.6%
- Percentage Met-Hb ([2]; 21-23° C., 5 hrs): 2.8%

Molecule: conjugate of hemoglobin (with a molecular weight of 64,000) and dextran (having a molecular weight of 20,000): hemoglobin conjugated to dextran of molecular weight 20,000, reported by Blumenstein et al.
- clearance from the circulation and through the kidneys [3]: cleared slowly from the circulation and negligibly through the kidneys

Reference: patent US20080138790A1 (priority 2004, published 2008)
